Paper PMC7267773, “CCDC61/VFL3 Is a Paralog of SAS6 and Promotes Ciliary Functions” (Structure(London, England:1993), 2020)

B1: N-terminal head domain of human CCDC61 (hCCDC61^1-143) [human] / itself (parent)
chain: GSMDQPAGLQVDYVFRGVEHAVRVMVSGQVLELEVEDRMTADQWRGEFDAGFIEDLTHKTGNFKQFNIFCHMLESALTQSSESVTLDLLTYTDLESLRNRKMGGRPGSLAPRSAQLNSKRYLILIYSVEFDRIHYPLPLPYQGKP

Variants of: B1
Experiment: analytical ultracentrifugation (AUC)
Conditions: with itself

screen value [kDa] | Variant
16 | chain 1 F130E D131A
